Data on 7 variants can be found in article PMC10869706, “Chp1 is a dedicated chaperone at the ribosome that safeguards eEF1A biogenesis” (Nature Communications, 2024).

B1: Chp1 (in yeast cells expressing V5-eEF1A) [yeast (S. cerevisiae)] / WT eEF1A (V5-TEF2) [yeast (S. cerevisiae)] (parent complex)
chain 1: MSTFNAETADNLEDIEKQFAVVAVEQAETYWKLLTSVPGSKLRLTKFDDEIYENFMERFPEYKDVERVKKFTEEELKTKEAKERWRKFFTIFEKKIEDYNFGTLLRTDASAEYGQFTTCFVVRLQFYAFEIARNKHGLNDWIVGQK
chain 2: MGKEKSHINVVVIGHVDSGKSTTTGHLIYKCGGIDKRTIEKFEKEAAELGKGSFKYAWVLDKLKAERERGITIDIALWKFETPKYQVTVIDAPGHRDFIKNMITGTSQADCAILIIAGGVGEFEAGISKDGQTREHALLAFTLGVRQLIVAVNKMDSVKWDESRFQEIVKETSNFIKKVGYNPKTVPFVPISGWNGDNMIEATTNAPWYKGWEKETKAGVVKGKTLLEAIDAIEQPSRPTDKPLRLPLQDVYKIGGIGTVPVGRVETGVIKPGMVVTFAPAGVTTEVKSVEMHHEQLEQGVPGDNVGFNVKNVSVKEIRRGNVCGDAKNDPPKGCASFNATVIVLNHPGQISAGYSPVLDCHTAHIACRFDELLEKNDRRSGKKLEDHPKFLKSGDAALVKFVPSKPMCVEAFSEYPPLGRFAVRDMRQTVAVGVIKSVDKTEKAAKVTKAAQKAAKK

In this assay the parent is B1. Briefly: co-IP (IP α-V5, blot α-Chp1), quantified; parent: 1; read off a plot.
For chain 2 G70S, the ratio to parent was around 0.25.
Take chain 2 P331L: the ratio to parent was around 2.4.
Consider chain 2 R421C, for which the ratio to parent is around 1.2.
To chain 2 D91N belongs around 0.45; to chain 2 G382R, around 0.5.
For the variant chain 2 A125E, the ratio to parent was around 0.5.
chain 2 R264W: the ratio to parent is around 0.3.
